Assay results reported in patent publication US20200138979A1 (REGENTS OF THE UNIVERSITY OF MICHIGAN, published 2020).
Where no end group is shown, it is not given here.

Tests used:
[1] = target: FGFR2c (fibroblast growth factor receptor 2, isoform IIIc) stably expressed on QhTERT cells (UniProt P21802); assay: flow cytometry time course, 5 µM peptide on QhTERT cells expressing FGFR2c, first order kinetics fit
[2] = target: FGFR2c (fibroblast growth factor receptor 2, isoform IIIc) stably expressed on QhTERT cells (UniProt P21802); assay: flow cytometry time course, 5 µM peptide on QhTERT cells expressing FGFR2c
[3] = target: FGFR2c (fibroblast growth factor receptor 2, isoform IIIc) stably expressed on QhTERT cells (UniProt P21802); assay: flow cytometry on cells overexpressing FGFR2 (same experiment as kd=68 nM, printed with more digits)
[4] = target: FGFR2c (fibroblast growth factor receptor 2, isoform IIIc) stably expressed on QhTERT cells (UniProt P21802); assay: flow cytometry, apparent dissociation constant on QhTERT cells expressing FGFR2c, 0-200 nM peptide, 4° C.
[5] = target: T1, recombinant FGFR2-ECD (Met1-Glu377), extracellular domain of FGFR2c (UniProt P21802 22-377, glycosylated); assay: phage display biopanning (4 rounds) against immobilized recombinant FGFR2-ECD; peptide displayed on M13 phage
T1 construct: range 1-377; Bought construct; also called #10824-H08H-50, Sino Biological
T1 sequence (P21802 22-377 limits assumed): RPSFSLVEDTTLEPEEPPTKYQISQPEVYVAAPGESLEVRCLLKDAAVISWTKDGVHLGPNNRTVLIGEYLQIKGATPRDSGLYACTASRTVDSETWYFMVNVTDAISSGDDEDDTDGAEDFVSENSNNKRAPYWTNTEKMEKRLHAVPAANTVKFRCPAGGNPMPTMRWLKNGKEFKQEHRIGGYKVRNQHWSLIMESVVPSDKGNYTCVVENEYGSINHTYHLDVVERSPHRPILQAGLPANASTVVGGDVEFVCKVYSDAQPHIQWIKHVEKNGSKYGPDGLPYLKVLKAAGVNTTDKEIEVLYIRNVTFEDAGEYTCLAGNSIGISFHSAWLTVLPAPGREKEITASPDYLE
Method: Peptide selection was performed using a phage display library (New England Biolabs, Ph.D.-12) per manufacturer instructions. This library consists of M13 bacteriophage that expresses ˜10⁹ unique 12-amino acid sequences. 2×10¹¹ pfu consisting of 2×10⁹ unique clones with ˜100 copies each were biopanned against FGFR2-ECD immobilized in a 6-well plate at 4° C. Four rounds of biopanning were performed using a decreasing quantity (100, 80, 60, and 40 μg) of FGFR2-ECD in successive rounds to increase binding specificity. After the 4th round, 50 plaques were randomly selected for DNA preparation and sequence analysis. We used an ABI Automatic DNA Analyzer (Applied Biosystems) with primer 5′-[…] TTA GCG TAA CG-3′ (−96 gIII sequencing primer, New England Biolabs) that corresponds to the pIII gene sequence of the M13 phage.

Sequence of FGFR2c (fibroblast growth factor receptor 2, isoform IIIc) stably expressed on QhTERT cells (P21802 22-821): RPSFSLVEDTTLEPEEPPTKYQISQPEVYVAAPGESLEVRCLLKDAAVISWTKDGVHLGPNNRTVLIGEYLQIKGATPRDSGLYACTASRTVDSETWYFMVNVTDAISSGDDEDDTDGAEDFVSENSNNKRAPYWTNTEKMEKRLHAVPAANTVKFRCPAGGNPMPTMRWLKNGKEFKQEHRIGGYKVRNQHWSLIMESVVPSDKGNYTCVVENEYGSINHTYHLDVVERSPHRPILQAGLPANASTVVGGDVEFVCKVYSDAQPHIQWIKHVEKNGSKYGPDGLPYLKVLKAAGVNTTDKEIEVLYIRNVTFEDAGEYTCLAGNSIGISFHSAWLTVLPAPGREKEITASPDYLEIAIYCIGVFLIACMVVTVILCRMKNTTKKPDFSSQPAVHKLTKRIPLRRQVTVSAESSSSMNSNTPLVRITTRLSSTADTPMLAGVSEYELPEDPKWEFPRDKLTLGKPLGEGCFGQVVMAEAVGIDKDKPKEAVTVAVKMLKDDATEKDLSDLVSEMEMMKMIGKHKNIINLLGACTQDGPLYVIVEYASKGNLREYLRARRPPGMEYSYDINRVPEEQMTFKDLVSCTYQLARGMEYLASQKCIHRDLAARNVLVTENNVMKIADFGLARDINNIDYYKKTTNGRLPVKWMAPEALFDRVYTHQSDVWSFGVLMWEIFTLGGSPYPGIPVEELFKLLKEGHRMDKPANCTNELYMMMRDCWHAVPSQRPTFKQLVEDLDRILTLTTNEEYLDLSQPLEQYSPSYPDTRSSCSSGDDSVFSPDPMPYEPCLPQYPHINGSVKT

**Q.** Which results are given for SRRPASFRTAREGGGSK(Cy5.5)-NH2 [SRR*-Cy5.5 (peptide … with Cy5.5 attached via a C-terminal GGGSK linker)]?
**A.** apparent association time constant k [1]: 0.16 min⁻¹; time scale for onset of binding [2]: 6.2 min; Kd [3]: 67.9 nM; Kd [4]: 68 nM

**Q.** Does SRRPASFRTARE (also called unlabeled SRR*; SSR peptide) [SRR* peptide SRRPASFRTARE, unlabeled] bind [5]?
**A.** binds
